Source: patent publication US20210253718A1, “FRIZZLED5 PROTEIN-BINDING AGENTS” (Modmab Therapeutics Corporation, priority 2016, published 2021)
Numbering of substitutions follows the chain as printed.

T1: FZD3 CRD (Homo sapiens, UniProt Q9NPG1)
T1 construct: CRD of FZD1, FZD2, FZD3, FZD4, FZD5, FZD6, FZD7, FZD8, FZD9 or FZD10; GPI anchor signal (C); expressed in transfected cells; host or cells: CHO cells, lentiviral pLenti-puro
T1 sequence (Q9NPG1 23-136 limits assumed): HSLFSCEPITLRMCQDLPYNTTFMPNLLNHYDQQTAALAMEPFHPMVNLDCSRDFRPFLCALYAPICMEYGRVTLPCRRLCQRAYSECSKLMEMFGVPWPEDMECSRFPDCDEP

T2: FZD8 CRD (Homo sapiens, UniProt Q9H461)
T2 construct: K31-D155; GPI anchor signal (C); expressed in transfected cells; host or cells: CHO cells, lentiviral pLenti-puro
T2 sequence (Q9H461 31-155): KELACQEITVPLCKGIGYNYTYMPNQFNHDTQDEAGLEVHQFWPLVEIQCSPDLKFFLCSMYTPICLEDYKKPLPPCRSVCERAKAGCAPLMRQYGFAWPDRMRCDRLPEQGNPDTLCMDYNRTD

B1: Fab-2910: anti-FZD5 Fab with antibody variable region Fv-2910; CDR SEQ ID NOs: 35, 36, 49, 88, 125, 162 (antibody, V domains shown)
VH: EVQLVESGGGLVQPGGSLRLSCAASGFNISYSYMHWVRQAPGKGLEWVASIYSSSSSTSYADSVKGRFTISADTSKNTAYLQMNSLRAEDTAVYYCARGAMDYWGQGTLVTVSS
VL: DIQMTQSPSSLSASVGDRVTITCRASQSVSSAVAWYQQKPGKAPKLLIYSASSLYSGVPSRFSGSRSGTDFTLTISSLQPEDFATYYCQQWYGSHLITFGQGTKVEIK
B2: Fab-2918: anti-FZD5 Fab with antibody variable region Fv-2918; CDR SEQ ID NOs: 35, 36, 57, 96, 133, 169 (antibody, V domains shown)
VH: EVQLVESGGGLVQPGGSLRLSCAASGFNLSYSSIHWVRQAPGKGLEWVASIYSSYSSTSYADSVKGRFTISADTSKNTAYLQMNSLRAEDTAVYYCARFGYWAIDYWGQGTLVTVSS
VL: B1 VL with W91A, Y92F, S94A, H95S, I97F
B3: Fab-2932: anti-FZD5 Fab with antibody variable region Fv-2932; CDR SEQ ID NOs: 35, 36, 71, 108, 147, 153 (antibody, V domains shown)
VH: B1 VH with S55Y, M101L
VL: DIQMTQSPSSLSASVGDRVTITCRASQSVSSAVAWYQQKPGKAPKLLIYSASSLYSGVPSRFSGSRSGTDFTLTISSLQPEDFATYYCQQWYGSFALITFGQGTKVEIK
B4: Fab-2933: anti-FZD5 Fab with antibody variable region Fv-2933; CDR SEQ ID NOs: 35, 36, 72, 109, 148, 177 (antibody, V domains shown)
VH: EVQLVESGGGLVQPGGSLRLSCAASGFNLYSSYMHWVRQAPGKGLEWVASIYSSYGYTSYADSVKGRFTISADTSKNTAYLQMNSLRAEDTAVYYCARTVRGSKKPYFSGWAMDYWGQGTLVTVSS
VL: DIQMTQSPSSLSASVGDRVTITCRASQSVSSAVAWYQQKPGKAPKLLIYSASSLYSGVPSRFSGSRSGTDFTLTISSLQPEDFATYYCQQFWWYASWLFTFGQGTKVEIK
B5: Fab-2934: anti-FZD5 Fab with antibody variable region Fv-2934; CDR SEQ ID NOs: 35, 36, 73, 110, 149, 155 (antibody, V domains shown)
VH: B1 VH with S56G, M101I
VL: B1 VL with G93H, S94Y, H95G

These molecules were tested against T3, FZD1 CRD (Homo sapiens, UniProt Q9UP38) (assay: Flow cytometry of anti-FZD5 Fab binding to CHO cells overexpressing Frizzled CRD). Settings: not given.
T3 construct: D112-P238; GPI anchor signal (C); expressed in transfected cells; host or cells: CHO cells, lentiviral pLenti-puro
Experimental: (§1) Plasmids: pLCKO lentiviral vector used for knockout (TKO) library construction and expression of individual gRNAs was constructed as described previously (Hart et al., 2015). Briefly, single guide RNA (sgRNA) scaffold was amplified from px330 (Addgene 42230) and cloned into pLKO.TRC005 lentiviral vector (Broad Institute, Cambridge, Mass.) using AgeI/EcoRI restriction sites. BfuAI sites were added at the 5′ end of the sgRNA scaffold for cloning the TKO library or individual gRNA target sequences. Lenti Cas9-2A-BsdR vector used to generate Cas9 stable expression cell lines was constructed as described previously (Hart et al., 2015). Briefly, lentiCRISPR pXPR_001 (Addgene 49535) was modified through removal of the sgRNA scaffold region through NdeI/EcoRI digest and blunt ends generation using Large Klenow Fragment (NEB). 2A-puro was replaced with 2A-BsdR by PCR using the NheI/MluI sites. Each of the 10 human Frizzled cysteine rich domains (CRDs) were cloned into the lentiviral expression plasmid pLenti-puro in the following cassette: FZD_CRD-MYC-GPI.
(§2) Flow cytometry: Primary staining of cells was performed by treatment with 200 nM Frizzled profiler Fab. Alexa Fluor 488 AffiniPure F(ab′)2 was used as the secondary antibody (Jackson ImmunoResearch #109-546-097). c-Myc (9E10) IgG1 (primary antibody, Santa Cruz, lot #D0306) and Alexa Fluor 488 IgG (secondary antibody, Life technologies, lot #1458649) were used as controls. Dead cells were excluded by staining with Fixable Viability Dye eFluor 660 (eBioscience, catalogue number 65-0864). All reagents were used as per manufacturer's instructions. Flow cytometry was performed on a BD FACSCanto II flow cytometer (BD Biosciences), and data were analyzed with FlowJo software (FlowJo, LLC).
(§3) To confirm that the FZD5-WNT7B circuit is not driven simply by expression and rule out the possibility of a disconnect between RNA and protein levels for the Wnt receptors in HPAF-II cells, a panel of recombinant Fabs were generated, alternatively referred to herein as ‘Frizzled profiler’, that can detect and discriminate all but one of the ten Frizzled receptors. […] To characterize the binding specificity of these Fabs on cells, a panel of 10 CHO cell lines was generated, each expressing the CRD domain of a different myc-tagged Frizzled family member anchored at the plasma membrane through a GPI anchor (CHO-myc-FZDGPI). Despite the high sequence identity between Frizzled family members (FIG. 7A, FIG. 7B), selective Fabs were identified for FZD4, FZD5, FZD6 and FZD10 as assessed by immunofluorescence and flow cytometry (FIG. 7D and FIG. 8). […] The FZD8 CRD is most homologous to that of FZD5 (FIG. 7B). These Fabs can be used to discriminate expression of FZD1, FZD2, FZD4, FZD5, FZD6, FZD7, FZD8, FZD9 and FZD10 (FIG. 7D and FIG. 8). The ‘Frizzled profiler’ therefore consists of 10 different Fabs that can be used to discriminate expression of 9 different Frizzled family members. The Frizzled profiler was then used to confirm that HPAF-II cells express FZD1, FZD5, FZD6 and possibly FZD8 (FIG. 7E).
(§4) The binding of anti-FZD5 Fabs to cell surface-expressed Frizzled protein was further determined for each member of the Frizzled family via flow cytometry and immunofluorescence analysis of a panel of 10 CHO cell lines, each ectopically over-expressing the extracellular cysteine-rich domain (CRD) of a different Frizzled protein family member.
In the case of B1, the “Median fluorescence, Frizzled CRD overexpressed on CHO cells: FZD1” value is reported as 6.67.
B2 was tested, and the “Median fluorescence, Frizzled CRD overexpressed on CHO cells: FZD1” value was 11.97.

What follows are molecules tested against T4, FZD2 CRD (Homo sapiens, UniProt Q14332) in the same assay as above. Settings: not given.
T4 construct: D35-P161; GPI anchor signal (C); expressed in transfected cells; host or cells: CHO cells, lentiviral pLenti-puro
Experimental: as §1, §2, §3, §4
With B3 the “Median fluorescence, Frizzled CRD overexpressed on CHO cells: FZD2” value (“Median fluorescence … FZD2” for short) was 9.39.
B4 was tested, and the “Median fluorescence … FZD2” value was 9.82.
B5 was tested, and the “Median fluorescence … FZD2” value was 6.61.

Each molecule was assayed against T3, FZD1 CRD (assay: Immunofluorescence of anti-FZD5 Fab binding to CHO cells overexpressing Frizzled CRD). Settings: not given.
Parameters: key: −: no binding; +: very weak binder; ++: weak binder; +++: good binder; ++++: very good binder
In short: (§5)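 Specificity of anti-FZD5 Fabs was tested on CHO cells displaying membrane-anchored Frizzled CRDs (myc-tagged, GPI-linked), one family member per line. Detection was by immunofluorescence.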
For B1, the “Immunofluorescence binding, Frizzled CRD overexpressed on CHO cells: FZD1” value (shortened to “Immunofluorescence binding … FZD1”) was “−”.
For B2, the “Immunofluorescence binding … FZD1” value was “−”.
B3 was tested, and the “Immunofluorescence binding … FZD1” value was “−”.
For B4, the “Immunofluorescence binding … FZD1” value was “+”.
In the case of B5, the “Immunofluorescence binding … FZD1” value is reported as “−”.

Each molecule was assayed against T1, FZD3 CRD in the same assay as above. Settings: not given.
Parameters: key: −: no binding; +: very weak binder; ++: weak binder; +++: good binder; ++++: very good binder
In short: as §5
B1 was tested, and the “Immunofluorescence binding, Frizzled CRD overexpressed on CHO cells: FZD3” value (“Immunofluorescence binding … FZD3” for short) was “−”.
In the case of B2, the “Immunofluorescence binding … FZD3” value is reported as “−”.
With B3 the “Immunofluorescence binding … FZD3” value was “−”.
B4 was tested, and the “Immunofluorescence binding … FZD3” value was “−”.
For B5, the “Immunofluorescence binding … FZD3” value was “−”.

These molecules were tested against T5, FZD7 CRD (Homo sapiens, UniProt O75084) in the same assay as above. Settings: not given.
T5 construct: D45-S169; GPI anchor signal (C); expressed in transfected cells; host or cells: CHO cells, lentiviral pLenti-puro
Parameters: key: −: no binding; +: very weak binder; ++: weak binder; +++: good binder; ++++: very good binder
In short: as §5
B1 was tested, and the “Immunofluorescence binding, Frizzled CRD overexpressed on CHO cells: FZD7” value (“Immunofluorescence binding … FZD7” below) was “+”.
With B2 the “Immunofluorescence binding … FZD7” value was “+”.
B3 was tested, and the “Immunofluorescence binding … FZD7” value was “++”.
B4 was tested, and the “Immunofluorescence binding … FZD7” value was “+”.
B5 was tested, and the “Immunofluorescence binding … FZD7” value was “−”.

These molecules were tested against T2, FZD8 CRD in the same assay as above. Settings: not given.
Parameters: key: −: no binding; +: very weak binder; ++: weak binder; +++: good binder; ++++: very good binder
In short: as §5
In the case of B1, the “Immunofluorescence binding, Frizzled CRD overexpressed on CHO cells: FZD8” value (shortened to “Immunofluorescence binding … FZD8”) is reported as “−”.
In the case of B2, the “Immunofluorescence binding … FZD8” value is reported as “+”.
In the case of B3, the “Immunofluorescence binding … FZD8” value is reported as “+”.
In the case of B4, the “Immunofluorescence binding … FZD8” value is reported as “+”.
B5 was tested, and the “Immunofluorescence binding … FZD8” value was “+”.

These molecules were tested on ASPC-1 cells (assay: Effect of anti-FZD5 Fabs on proliferation of pancreatic cancer cell lines (percent growth inhibition)). Settings: Fab 10 μg/ml.
Assay type: cell-based, human
Experimental: (§6) The effect of presently disclosed anti-FZD5 Fabs on proliferation of RNF43 loss-of-function mutant pancreatic cancer cell lines HPAFII, PATU8988S and ASPC-1; and on pancreatic cancer cell line RWP1, was tested at […] and 10 μg/ml.
B1 was tested, and the “percent growth inhibition, ASPC-1 10 μg/ml” value was 41.71%.
For B2, the “percent growth inhibition, ASPC-1 10 μg/ml” value was 45.56%.
In the case of B3, the “percent growth inhibition, ASPC-1 10 μg/ml” value is reported as 28.62%.
B4 was tested, and the “percent growth inhibition, ASPC-1 10 μg/ml” value was 19.44%.
B5 was tested, and the “percent growth inhibition, ASPC-1 10 μg/ml” value was 36.76%.

Each molecule was assayed on HPAFII cells in the same assay as above. Settings: Fab 2 μg/ml.
Assay type: cell-based, human
Experimental: as §6
In the case of B1, the “percent growth inhibition, HPAFII 2 μg/ml” value is reported as 26.86%.
For B2, the “percent growth inhibition, HPAFII 2 μg/ml” value was 37.15%.
With B3 the “percent growth inhibition, HPAFII 2 μg/ml” value was −0.17%.
B4 was tested, and the “percent growth inhibition, HPAFII 2 μg/ml” value was −14.19%.
With B5 the “percent growth inhibition, HPAFII 2 μg/ml” value was 3.40%.

Same assay, conditions: Fab 10 μg/ml
With B1 the “percent growth inhibition, HPAFII 10 μg/ml” value was 41.81%.
For B2, the “percent growth inhibition, HPAFII 10 μg/ml” value was 44.60%.
In the case of B3, the “percent growth inhibition, HPAFII 10 μg/ml” value is reported as 3.21%.
In the case of B4, the “percent growth inhibition, HPAFII 10 μg/ml” value is reported as −6.12%.
B5 was tested, and the “percent growth inhibition, HPAFII 10 μg/ml” value was 20.44%.

These molecules were tested on PATU8988S cells in the same assay as above. Settings: Fab 10 μg/ml.
Assay type: cell-based, human
Experimental: as §6
For B1, the “percent growth inhibition, PATU8988s 10 μg/ml” value was −12.84%.
For B2, the “percent growth inhibition, PATU8988s 10 μg/ml” value was −1.92%.
For B3, the “percent growth inhibition, PATU8988s 10 μg/ml” value was −8.85%.
For B4, the “percent growth inhibition, PATU8988s 10 μg/ml” value was −17.17%.
With B5 the “percent growth inhibition, PATU8988s 10 μg/ml” value was 1.78%.

The molecules below were run on RWP1 cells in the same assay as above. Settings: Fab 10 μg/ml.
Assay type: cell-based, human
Experimental: as §6
B1 was tested, and the “percent growth inhibition, RWP1 10 μg/ml” value was 54.51%.
In the case of B2, the “percent growth inhibition, RWP1 10 μg/ml” value is reported as 39.24%.
In the case of B3, the “percent growth inhibition, RWP1 10 μg/ml” value is reported as 25.69%.
In the case of B4, the “percent growth inhibition, RWP1 10 μg/ml” value is reported as 27.16%.
In the case of B5, the “percent growth inhibition, RWP1 10 μg/ml” value is reported as 0.90%.
